T1: EndoU catalytic domain (human, UniProt P21128 135-410)
T1 sequence: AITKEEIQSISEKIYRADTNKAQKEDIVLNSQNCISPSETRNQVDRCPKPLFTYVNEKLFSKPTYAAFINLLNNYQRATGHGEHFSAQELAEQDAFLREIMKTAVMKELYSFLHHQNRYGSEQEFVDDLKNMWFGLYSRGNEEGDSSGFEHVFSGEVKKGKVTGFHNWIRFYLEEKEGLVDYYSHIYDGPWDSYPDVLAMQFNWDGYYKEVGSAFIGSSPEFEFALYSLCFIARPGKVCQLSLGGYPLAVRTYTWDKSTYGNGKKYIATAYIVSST


Molecular target: T1, EndoU catalytic domain
Test: NMR; Ca2+ (calcium-activated EndoU); NMR: 10 mM Tris pH 7, 50 mM NaCl, 1 mM TCEP, 10% D2O, 35 C; EndoU 350 uM (Fig. 4)
Details: protein: recombinant; tags: GB1-His6 removed by TEV; residual N-terminal GGSEFA; single strand

| Binder | binding result |
| --- | --- |
| AAGUCC (XNA, 2'-F at all nucleotides (non-cleavable)) [2'-fluorinated RNA AAGUCC] | binds |
| UUUUUU (XNA, 2'-F) [2'F (U)6 RNA] | binds |
